Source: paper PMC11602438

Tests used:
[1] = molecular target: T1, YggS (E. coli PLP-BP), wild type (Escherichia coli) (UniProt P67080); assay: EMSA; conditions: REMSA with fixed RNA: 10 mM HEPES pH 7.3, 10 mM KCl, 1 mM MgCl2, 1 mM DTT, 5% glycerol, RT 30 min; 5% native PAGE, 0.5x TBE (fixed-protein REMSA: 20 mM HEPES …)
T1 sequence: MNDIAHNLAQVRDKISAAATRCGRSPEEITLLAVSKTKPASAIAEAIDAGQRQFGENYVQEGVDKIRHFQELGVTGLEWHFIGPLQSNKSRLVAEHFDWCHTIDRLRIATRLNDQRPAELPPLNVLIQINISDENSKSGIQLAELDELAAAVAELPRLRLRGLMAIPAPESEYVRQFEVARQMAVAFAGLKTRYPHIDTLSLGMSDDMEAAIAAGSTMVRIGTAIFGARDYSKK

[2] = tested on: YggS (E. coli PLP-BP), wild type (Escherichia coli); assay: EMSA; conditions: apo-form (no PLP); REMSA with fixed RNA: 10 mM HEPES pH 7.3, 10 mM KCl, 1 mM MgCl2, 1 mM DTT, 5% glycerol, RT 30 min; 5% native PAGE, 0.5x TBE (fixed-protein REMSA: 20 mM HEPES …)

With “GGGUCGCGUGGAAGCCCUGCCUGGGGUUGAAGCGUUAAAACUUAAUCAGGCUAGUUUGUUAGUGGCGUGUCCGUCCGCAGCUGGCAAGCGAAUGUAAAGACUGACUAAGCAUGUAGUACCGAGG [SsrA RNA fragment (198-318)]” the Kd [1] was 2.8 µM.

In the case of “GGGUGGUAACAGUCCGUGGCACGGUAAACUCCACCCGGAGCAAGGCCAAAUAGGGGUUCAUAAGGUACGGCCCGUACUGAACCCGGGUAGGCUGCUUGAGCCAGUGAGCGAUUGCUGGCCUAGAUGAAUGACUGUCCACGACAGAACCCGG [RnpB RNA fragment (210-357)]”, the Kd [1] is reported as 3.4 µM.

Work on RnpB RNA fragment (210-357) yielded a Kd [2] of 3.4 µM.

Substance SsrA RNA fragment (198-318) has a Kd [2] of 2.8 µM.
